In PMC4655355, “Structural insights into YfiR sequestering by YfiB in Pseudomonas aeruginosa PAO1” (Scientific Reports, 2015):

B3: YfiR(C71S) (domain or fragment)
chain: DDARTSIEQRSNAVSQVLLGIFSYVRWPKEPAVLQLSVVGPTEYADGLLRGMVQANGRRVHAERRAVDNPDLGTLCNVIYLGVVDERERQQVFRSLAGHPVLSISERGTECSVGSMFCLNVGGPRITFEANLDSIARSGVRVHPSVLKLARRQATP
notes: YfiR (PA1121) of Pseudomonas aeruginosa PAO1, residues 35-190, with C71S; the methods describe only the wild-type construct; also called C71S mutant of YfiR; not shown: Trx, N-terminal, cleaved
B4: YfiR (residues 35–190) (domain or fragment)
chain: DDARTSIEQRSNAVSQVLLGIFSYVRWPKEPAVLQLCVVGPTEYADGLLRGMVQANGRRVHAERRAVDNPDLGTLCNVIYLGVVDERERQQVFRSLAGHPVLSISERGTECSVGSMFCLNVGGPRITFEANLDSIARSGVRVHPSVLKLARRQATP
notes: YfiR (PA1121) of Pseudomonas aeruginosa PAO1, residues 35-190; the N-terminal 34 residues (signal peptide) left out; cloned in pET-32a; purified on Ni-NTA, tag removed with PPase; also called PA1121; wild-type YfiR; source: E. coli, purified (Ni-NTA, ResourceS, Superdex75); not shown: Trx, N-terminal, cleaved

Assays:
[1] = biological target: YfiB W55L (Pseudomonas aeruginosa PAO1) (UniProt Q9I4L6); assay: AUC; single purified proteins, 400 μL at 3 mg ml^-1 in 20 mM Tris-HCl, 200 mM NaCl; 42,000 rpm, 277 K, interference detection; SEDFIT
YfiR (residues 35–190) = biological target: B4; assay: AUC; YfiB-YfiR complex at 10 mg ml^-1 in 20 mM Tris-HCl, 200 mM NaCl; 42,000 rpm, 277 K, interference detection; SEDFIT; details: both partners purified
YfiR(C71S) = biological target: B3; assay: crystal structure; YfiR(C71S)-YfiB(59–168) complex, 1.97 Å; proteins mixed 1:1; 0.1 M HEPES pH 7.5, 1.8 M ammonium sulfate, 293 K; details: both partners purified
[2] = biological target: the molecule itself; assay: AUC; single purified proteins, 400 μL at 3 mg ml^-1 in 20 mM Tris-HCl, 200 mM NaCl; 42,000 rpm, 277 K, interference detection; SEDFIT
[3] = biological target: the molecule itself; assay: crystal structure; YfiR(C71S)-YfiB(59–168) complex, 1.97 Å; proteins mixed 1:1; 0.1 M HEPES pH 7.5, 1.8 M ammonium sulfate, 293 K
[4] = biological target: the molecule itself; assay: AUC; YfiB-YfiR complex at 10 mg ml^-1 in 20 mM Tris-HCl, 200 mM NaCl; 42,000 rpm, 277 K, interference detection; SEDFIT

## YfiB W55L (from UniProt Q9I4L6 27-168) (domain or fragment)
[1]
  stoichiometry N: 2

B1: YfiB(59–168) (domain or fragment)
chain: MSSKVLFGNNLDRLNPDSRNTLTKIARALLAVDIDKVRLEGHTDNYGDEGYNQKLSERRAESVAAVFREAGMPAANIEVRGLGMSKPVADNKTRAGRSENRRVAIIVPAE
notes: cloned in pET-32a; tag removed with PPase on the resin; also called shorter YfiB construct; source: E. coli, purified (Ni-NTA, Hitrap S, Superdex75)
YfiR (residues 35–190)
  stoichiometry N: 1 YfiB per YfiR (2:2)
YfiR(C71S)
  binding result: binds

B2: YfiB(27–168) (domain or fragment)
chain: QTKPPQTGLSAEQIAVLQEQGFELRDEGWEFGMSSKVLFGNNLDRLNPDSRNTLTKIARALLAVDIDKVRLEGHTDNYGDEGYNQKLSERRAESVAAVFREAGMPAANIEVRGLGMSKPVADNKTRAGRSENRRVAIIVPAE
notes: signal peptide 1-25 and lipid acceptor Cys26 left out; cloned in pGEX-6p-1; GST removed with PPase on the resin; also called PA1119; longer YfiB construct; source: E. coli, purified (GST column, Hitrap Q, Superdex75)
[2]
  stoichiometry N: 2

## B3
[3]
  binding result: binds

## B4
[4]
  stoichiometry N: 2
